Measured values published in patent publication US9120862 (AbbVie / Abbott, dated 2015).
Bridge positions count the residues as written; N and C are the ends. Ends that are not written are not given here.

T1: Alexa-488 labeled PIVKA-II Gla domain peptide (13-27) (human, disulfide 5-10 (inferred); also: labelled with Alexa Fluor 488 TFP ester, site not given here)
T1 construct: also called Alexa488-PIVKA-II (13-27); Alexa488-PIVKA-II peptide (13-27 cyc)
T1 peptide: LERECVEETCSYEEA

B1: monoclonal antibody 3C10 (produced by hybridoma cell line ATCC deposit designation PTA-9638) (antibody, V domains shown)
VH: EVQLVESGGDLVKPGGSLKLSCAASGFTFSSYGMSWVRQTPDKRLEWVATISRGGSSTYYPDSVKGRFTISRDNAKNNLYLQMSSLKSEDTAMYYCASLNYGNFFDYWGQGTTLTVSS
VL: DVVMTQTPLSLPVSLGDQASISCRSSQSLVHSNGNTYLHWYLQKPGQSPKLLIYKVSNRFSGVPDRFSGSGSGTDFTLKISRVEAEDLGVYFCSQNRHVPPTFGGGTKLEIKR

Biological target: T1, Alexa-488 labeled PIVKA-II Gla domain …
Assay: fluorescence quenching titration: BHQ-labelled mAb 3C10 titrated against 0.05 nM Alexa488 PIVKA-II peptide (13-27)

EC50 (read off the curve) [nM]	Binder
~0.1	B1

Each binder was assayed against B1 (assay: FCS competition: 2 nM Alexa488-PIVKA-II (13-27) premixed with 10 nM mAb 3C10, analog peptide added, overnight; D of the tracer (high D = tracer displaced)).

Apparent Diffusion Coefficient (D) [um^2/sec]	Binder
53	LERECIEEICDFEEA (disulfide 5-10 (inferred)) [13-27 Gla domain PIVKA Protein C peptide]
51	LEKECYEEICVYEEA (disulfide 5-10 (inferred)) [13-27 Gla domain PIVKA Protein Z peptide]
48	LERECMEEKCSFEEA (disulfide 5-10 (inferred)) [13-27 Gla domain PIVKA IX peptide]
52	LERECMEETCSYEEA (disulfide 5-10 (inferred)) [13-27 Gla domain PIVKA Factor X peptide]
50	LERECIEELCNKEEA (disulfide 5-10 (inferred)) [13-27 Gla domain PIVKA Protein S peptide]
49	LERECKEEQCSFEEA (disulfide 5-10 (inferred)) [13-27 Gla domain PIVKA Factor VII peptide]
